Data taken from the RNAGym collection of RNA variant scans (doi:10.7554/elife.80360).

B1: CPEB3 Ribozyme (parent)
chain: GGGGGCCACAGCAGAAGCGUUCACGUCGCGGCCCCUGUCAGAUUCUGGUGAAUCUGCGAAUUCUGCUGU

Variants of: B1
Assay: self-cleavage, relative activity (ratio to wild type); higher = more cleavage; co-transcriptional

Which self-cleavage does the source give for GGGGGGCACAGCAGAAGCGUCCACGUCGCGGCCCCUGUCAGAUUCUGGUGAAUCUGCGAAUUCUGCUGU [C6G U21C] here?
Its self-cleavage is 0.312.

With GGGGGUCACAGCAGAAGCGUUCACGUCGCGGCCCCUGUCAGAUUCUGGUGAAUCUGCGAGUUCUGCUGU [C6U A60G] as the variant, how does the self-cleavage read?
The self-cleavage was 0.85.

With GGGGGUCACAGCAGAAGCGUUCACGUCGCGGCCCCUGUCAGAUUCUGGUGAAUCUGCGAUUUCUGCUGU [C6U A60U] as the variant, how does the self-cleavage read?
Its self-cleavage is 0.401.

Which self-cleavage does the source give for GGGGGUCACAGCAGAAGCGUUCACGUCGCGGCCCCUGUCAGAUUCUGGUGAAUCUGCGACUUCUGCUGU [C6U A60C] here?
The self-cleavage was 0.318.

Which self-cleavage does the source give for GGGGGUCACAGCAGAAGCGUUCACGUAGCGGCCCCUGUCAGAUUCUGGUGAAUCUGCGAAUUCUGCUGU [C6U C27A] here?
The self-cleavage was 0.369.

Which self-cleavage does the source give for GGGGGUCACAGCAGAAGCGUUCACGUGGCGGCCCCUGUCAGAUUCUGGUGAAUCUGCGAAUUCUGCUGU [C6U C27G] here?
The self-cleavage was 0.199.

For GGGGGUCACAGCAGAAGCGUUCACGUCGCGGCCCCUGUCAGAUUCUGGUGACUCUGCGAAUUCUGCUGU [C6U A52C], which self-cleavage is on record?
The self-cleavage was 0.956.

Which self-cleavage does the source give for GGGGGUCACAGCAGAAGCGUUCACGUCGCGGCCCCUGUCAGAUUCUGGUGAUUCUGCGAAUUCUGCUGU [C6U A52U] here?
The self-cleavage was 0.996.

With GGGGGUCACAGCAGAAGCGUUCACGUCGCGGCCUCUGUCAGAUUCUGGUGAAUCUGCGAAUUCUGCUGU [C6U C34U] as the variant, how does the self-cleavage read?
Its self-cleavage is 0.944.

Which self-cleavage does the source give for GGGGGUCACAGCAGAAGCGUUCACGUCGCGGCCACUGUCAGAUUCUGGUGAAUCUGCGAAUUCUGCUGU [C6U C34A] here?
Its self-cleavage is 0.426.

Which self-cleavage does the source give for GGGGGUCACAGCAGAAGCGUUCACGUCGCGGGCCCUGUCAGAUUCUGGUGAAUCUGCGAAUUCUGCUGU [C6U C32G] here?
Its self-cleavage is 0.246.

With GGGGGUCACAGCAGAAGCGUUCACGUCGCGGUCCCUGUCAGAUUCUGGUGAAUCUGCGAAUUCUGCUGU [C6U C32U] as the variant, how does the self-cleavage read?
The self-cleavage was 0.826.

Which self-cleavage does the source give for GGGGGUCACAGUAGAAGCGUUCACGUCGCGGCCCCUGUCAGAUUCUGGUGAAUCUGCGAAUUCUGCUGU [C6U C12U] here?
The self-cleavage was 0.987.

With GGGGGUCACAGAAGAAGCGUUCACGUCGCGGCCCCUGUCAGAUUCUGGUGAAUCUGCGAAUUCUGCUGU [C6U C12A] as the variant, how does the self-cleavage read?
Its self-cleavage is 0.676.

Which self-cleavage does the source give for GGGGGUCACAGGAGAAGCGUUCACGUCGCGGCCCCUGUCAGAUUCUGGUGAAUCUGCGAAUUCUGCUGU [C6U C12G] here?
Its self-cleavage is 0.726.

With GGGGGUCACAGCAGAAGCGUUCACGUCGCGGCCCCUGUCCGAUUCUGGUGAAUCUGCGAAUUCUGCUGU [C6U A40C] as the variant, how does the self-cleavage read?
The self-cleavage was 0.506.

For GGGGGUCACAGCAGAAGCGUUCACGUCGCGGCCCCUGUCUGAUUCUGGUGAAUCUGCGAAUUCUGCUGU [C6U A40U], which self-cleavage is on record?
Its self-cleavage is 0.835.

Which self-cleavage does the source give for GGGGGUCACAGCAGAAGCGUUCACGUCGCGGCUCCUGUCAGAUUCUGGUGAAUCUGCGAAUUCUGCUGU [C6U C33U] here?
The self-cleavage was 0.863.

For GGGGGGCACAGCAGAAGCGUUCACGUCGCGGCCCCUGUCAGACUCUGGUGAAUCUGCGAAUUCUGCUGU [C6G U43C], which self-cleavage is on record?
The self-cleavage was 0.39.

With GGGGGGCACAGCAGAAGCGUUCACGUCGCGGCCCCUGUCAGAUUCUGGUGAAUCUGCGAAUUCUGCUCU [C6G G68C] as the variant, how does the self-cleavage read?
The self-cleavage was 0.478.

Which self-cleavage does the source give for GGGGGGCACAGCAGAAGCGUUCACGUCGCGGCCCCUGUCAGAUUCUGGUGAAUCUGCGAAUUCUGCUUU [C6G G68U] here?
The self-cleavage was 0.509.

For GGGGGUCACAGCAGAAGCGUUCACGUCGCGGCCCCUGUCAGAUUCUGGUGAAUCUGCGGAUUCUGCUGU [C6U A59G], which self-cleavage is on record?
The self-cleavage was 0.961.

Which self-cleavage does the source give for GGGGGUCACAGCAGAAGCGUUCACGUCGCGGCCCCUGUCAGAUUCUGGUGAAUCUGCGCAUUCUGCUGU [C6U A59C] here?
The self-cleavage was 0.586.

For GGGGGUCACAGCAGAAGCGUUCACGUCGCGGCCCCUGUCAGAUUCUGGUGAAUCUGCGUAUUCUGCUGU [C6U A59U], which self-cleavage is on record?
Its self-cleavage is 0.733.

With GGGGGUCACAGCAGAAGAGUUCACGUCGCGGCCCCUGUCAGAUUCUGGUGAAUCUGCGAAUUCUGCUGU [C6U C18A] as the variant, how does the self-cleavage read?
Its self-cleavage is 0.119.

With GGGGGUCACAGCAGAAGCGUUCAAGUCGCGGCCCCUGUCAGAUUCUGGUGAAUCUGCGAAUUCUGCUGU [C6U C24A] as the variant, how does the self-cleavage read?
Its self-cleavage is 0.582.

Which self-cleavage does the source give for GGGGGUCACAGCAGAAGCGUUCAUGUCGCGGCCCCUGUCAGAUUCUGGUGAAUCUGCGAAUUCUGCUGU [C6U C24U] here?
Its self-cleavage is 0.709.

Which self-cleavage does the source give for GGGGGUCACUGCAGAAGCGUUCACGUCGCGGCCCCUGUCAGAUUCUGGUGAAUCUGCGAAUUCUGCUGU [C6U A10U] here?
The self-cleavage was 0.999.

With GGGGGUCACCGCAGAAGCGUUCACGUCGCGGCCCCUGUCAGAUUCUGGUGAAUCUGCGAAUUCUGCUGU [C6U A10C] as the variant, how does the self-cleavage read?
Its self-cleavage is 0.985.

With GGGGGUCAGAGCAGAAGCGUUCACGUCGCGGCCCCUGUCAGAUUCUGGUGAAUCUGCGAAUUCUGCUGU [C6U C9G] as the variant, how does the self-cleavage read?
The self-cleavage was 1.02.

For GGGGGUCAAAGCAGAAGCGUUCACGUCGCGGCCCCUGUCAGAUUCUGGUGAAUCUGCGAAUUCUGCUGU [C6U C9A], which self-cleavage is on record?
Its self-cleavage is 1.03.

For GGGGGUCAUAGCAGAAGCGUUCACGUCGCGGCCCCUGUCAGAUUCUGGUGAAUCUGCGAAUUCUGCUGU [C6U C9U], which self-cleavage is on record?
Its self-cleavage is 1.05.

With GGGGGGCACAGCAGAAGCGUUCACGUCGCGGCCCCUGCCAGAUUCUGGUGAAUCUGCGAAUUCUGCUGU [C6G U38C] as the variant, how does the self-cleavage read?
Its self-cleavage is 0.227.

Which self-cleavage does the source give for GGGGGGCACAGCAGAAGCGUUCACGUCGCGGCCCCUGACAGAUUCUGGUGAAUCUGCGAAUUCUGCUGU [C6G U38A] here?
Its self-cleavage is 0.248.

Which self-cleavage does the source give for GGGGGGCACAGCAGAAGCGUUCACGGCGCGGCCCCUGUCAGAUUCUGGUGAAUCUGCGAAUUCUGCUGU [C6G U26G] here?
The self-cleavage was 0.224.

Which self-cleavage does the source give for GGGGGGCACAGCAGAAGCGUUCACGACGCGGCCCCUGUCAGAUUCUGGUGAAUCUGCGAAUUCUGCUGU [C6G U26A] here?
The self-cleavage was 0.188.

Which self-cleavage does the source give for GGGGGUCACAGCAGAAGCGUUCACGUCGCGGCCCCUGUCAGAUUCUGGUGAAUCUGCGAAUUCUGCUGU [C6U] here?
Its self-cleavage is 1.01.

Which self-cleavage does the source give for GGGGGUCACAGCAGAAGCGUUCACGUCGCGGCCCCUGUCAGAUUCUGGUGCAUCUGCGAAUUCUGCUGU [C6U A51C] here?
Its self-cleavage is 0.905.

With GGGGGGCACAGCAGAAGCGUUCACGUCGCGGCCCCUGUCAGAUUCUGGUGAAUCUGCGAAUUCAGCUGU [C6G U64A] as the variant, how does the self-cleavage read?
Its self-cleavage is 0.133.
